Here are results for four molecules from PMC8809517, “Cofactor-independent RNA editing by a synthetic S-type PPR protein”.

Positions count from the first letter of the chain named.

What all share (test): high-throughput RNA pulldown from lysate on Ni-NTA beads; HRP: 50 mM Tris pH 8, 150 mM NaCl, 1 mM beta-mercaptoethanol, 50 ug/ml BSA, 3 ug/ml yeast RNA, 0.5% heparin; ITC and FP: Tris pH 8, 200 mM KCl, 5% glycerol; MST: 50 mM Tris pH 8, 200 mM NaCl, 1 mM DTT, BSA, heparin, 0.05% Tween 20
Common to all, as to settings: tags: N-terminal His-eGFP

The target in series [1] is T1, GFP-9S library array, motif 4 ND N98G;D124H (synthetic construct, N98G;D124H).
T1 chain: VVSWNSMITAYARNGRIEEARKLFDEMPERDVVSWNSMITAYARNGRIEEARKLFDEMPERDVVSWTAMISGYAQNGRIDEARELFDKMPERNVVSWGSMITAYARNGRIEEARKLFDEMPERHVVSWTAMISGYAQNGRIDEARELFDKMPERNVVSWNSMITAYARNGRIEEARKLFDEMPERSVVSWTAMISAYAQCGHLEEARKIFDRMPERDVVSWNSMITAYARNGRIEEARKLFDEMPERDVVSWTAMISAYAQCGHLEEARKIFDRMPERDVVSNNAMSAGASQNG

Series [2] addresses T2, GFP-9S library array, motif 4 ND N98P;D124P (synthetic construct, N98P;D124P).
T2 chain: T1 chain with G98P, H124P

For series [3], the target named is T3, GFP-9S library array, motif 4 ND N98D;D124A (synthetic construct, N98D;D124A).
T3 chain: T1 chain with G98D, H124A

The target in series [4] is T4, GFP-9S library array, motif 4 ND N98Y;D124K (synthetic construct, N98Y;D124K).
T4 chain: T1 chain with G98Y, H124K

Series [5] has as its target T5, GFP-9S library array, motif 4 ND D124N (synthetic construct, D124N).
T5 chain: T1 chain with G98N, H124N

As usually defined, the Kd is the concentration at which binding is half-saturated. A lower Kd goes with higher affinity. Take AUUAUACGUGA (ssRNA) [IR-rpoA-U]: the Kd in series [1] (label: 5' IRDye 800CW) was found to be 136 nM; in series [2] (label: 5' IRDye 800CW) it was 561 nM; in series [3] (label: 5' IRDye 800CW), 174 nM; in series [4] (label: 5' IRDye 800CW) it was 227 nM; in series [5] (label: 5' IRDye 800CW) it was 11.6 nM.

As to AUUACACGUGA (ssRNA) [Cy5-rpoA], the Kd in series [1] (label: 5' Cy5) is 91.1 nM; in series [2] (label: 5' Cy5), 273 nM; in series [3] (label: 5' Cy5) it was 103 nM; in series [4] (label: 5' Cy5), 93.3 nM; in series [5] (label: 5' Cy5), 3.13 nM.

Turning to AUUAAACGUGA (ssRNA) [IR-rpoA-A], the equilibrium dissociation constant (Kd) in series [1] (label: 5' IRDye 800CW) turned out to be 114 nM; in series [2] (label: 5' IRDye 800CW) it was 1420 nM; in series [3] (label: 5' IRDye 800CW) it was 233 nM; in series [4] (label: 5' IRDye 800CW), 207 nM; in series [5] (label: 5' IRDye 800CW), 114 nM.

In the case of AUUAGACGUGA (ssRNA) [Cy5-rpoA-G], the Kd was determined as 108 nM in series [1] (label: 5' Cy5); 326 nM in series [2] (label: 5' Cy5); 114 nM in series [3] (label: 5' Cy5); 97 nM in series [4] (label: 5' Cy5); 178 nM in series [5] (label: 5' Cy5).
